From article doi:10.1101/691972, “Structure of D. melanogaster ARC1 reveals a repurposed molecule with characteristics of retroviral Gag” (bioRxiv, 2019)
Changes are numbered by the printed parent chain. Names may count otherwise.

Legend:
[1] = biological target: the molecule itself; assay: crystal structure; Se-Met dARC1 CA; orthorhombic (P212121, 1.7 Å) and hexagonal (P6122, 2.3 Å) crystal forms, each with a dimer in the asymmetric unit; NaCl, HEPES pH 7.5 type conditions, 18 °C
[2] = biological target: the molecule itself; assay: SEC-MALS; SEC-MALLS; 25-400 µM loaded in 100 µL on Superdex INCREASE 200 10/300 GL; 20 mM Tris-HCl, 150 mM NaCl, 0.5 mM TCEP, 3 mM NaN3, pH 8.0

B1: Se-Met substituted dARC1 CA (residues S39-N205) (domain or fragment, Drosophila melanogaster)
chain: SRGKGNFSACTHSFGGTRDHDVVEEFIGNIETYKDVEGISDENALKGISLLFYGMASTWWQGVRKEATTWKEAIALIREHFSPTKPAYQIYMEFFQNKQDDHDPIDTFVIQKRALLAQLPSGRHDEETELDLLFGLLNIKYRKHISRHSVHTFKDLLEQGRIIEHNNPLE
modifications: seleno-methionine substituted (incorporation confirmed by ESI-MS)
notes: dARC1, Drosophila melanogaster, Uniprot Q7K1U0, residues 39-205 (CA domain); the added N-terminal Met was processed; Protein of the two solved crystal forms (orthorhombic and hexagonal); also called SeMet dARC1 CA; seleno-methionine derivative protein; source: E. coli B834 (DE3) in seleno-methionine medium, purified by the identical procedure (Ni-NTA, carboxypeptidase A, SEC); not shown: His6, …
- binding result [1]: binds

B2: dARC1 CA (capsid domain region of D. melanogaster dARC1, residues S39-N205) (domain or fragment, Drosophila melanogaster)
chain: B1 chain
notes: dARC1, Drosophila melanogaster, Uniprot Q7K1U0, residues 39-205 (CA domain); the added N-terminal Met was processed (confirmed by ESI-MS); Native (non-SeMet) protein used for SEC-MALLS and AUC; also called dARC CA; dARC1 CA (S39-N205); source: E. coli BL21 (DE3), purified (Ni-NTA, carboxypeptidase A digestion of the His-tag, Superdex 75 SEC); not shown: His6, C-terminal, cleaved
- stoichiometry N [2]: 2

B3: dARC1 CA (F133A) (domain or fragment, Drosophila melanogaster)
chain: B1 chain with F95A
notes: dARC1, Drosophila melanogaster, Uniprot Q7K1U0, residues 39-205 (CA domain) with F133A; also called F133A mutation; source: E. coli BL21 (DE3), purified
- binding result [2]: binds
